Experimental data as given in US20060019314A1.

Legend:
FOXO3a-TM (human) = FOXO3a-TM (human) (UniProt O43524); test: cell-based or functional assay
FOXO3a (human) = FOXO3a (human) (UniProt O43524); test: cell-based or functional assay

synthetic FOXO luciferase reporter (three tandem IRS elements), 293 cells (FOXO3a-TM (human)): 12 fold | synthetic FOXO luciferase reporter (three tandem IRS elements), HepG2 cells (FOXO3a-TM (human)): 2 fold | synthetic FOXO luciferase reporter (three tandem IRS elements), HepG2 cells (percent increase) (FOXO3a (human)): 50
Substance: human Smek1 (from UniProt Q6IN85 1-833)
